Experimental data from patent publication US20250019454A1 (BIOCYTOGEN PHARMACEUTICALS BEIJING, published 2025).
Substitutions are numbered along the chain they refer to. One block for each binder: values may come before it.

Key:
[1] = molecular target: T1, ΔCRD3-TNFR2 protein (with CRD3 deletion), on CHO-S cells (human, UniProt P20333 23-461); assay: FACS on CHO-S cells with ΔCRD3-TNFR2
T1 construct: also called CHO-SΔCRD3-TNFR2; TNFR2 lacking CRD3
T1 sequence: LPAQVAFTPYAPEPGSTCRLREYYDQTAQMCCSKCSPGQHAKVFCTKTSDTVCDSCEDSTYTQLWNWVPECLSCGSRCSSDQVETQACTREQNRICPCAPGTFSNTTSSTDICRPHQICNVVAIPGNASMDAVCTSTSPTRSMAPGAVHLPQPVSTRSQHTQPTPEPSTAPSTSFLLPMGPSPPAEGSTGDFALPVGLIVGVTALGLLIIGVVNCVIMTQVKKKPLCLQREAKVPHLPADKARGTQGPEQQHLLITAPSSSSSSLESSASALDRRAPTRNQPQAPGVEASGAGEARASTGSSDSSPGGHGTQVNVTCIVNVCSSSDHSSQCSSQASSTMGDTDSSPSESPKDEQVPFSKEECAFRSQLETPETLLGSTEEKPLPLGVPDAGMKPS
Excerpt: (§1) TNFR2 has four cysteine rich domains (CRD). In another experiment, FACS was used to detect the binding of anti-hTNFR2 antibodies to TNFR2 proteins with different structural domains. Secondary antibody (Alexa Fluor® 647 AffiniPure F(ab′) 2 Fragment Goat Anti-Human IgG, Fcγ fragment specific, Jackson ImmunoResearch Laboratories, Inc., Cat #: 151524) was used. The fluorescence-labeled secondary antibody can attach to the Fc region of the anti-hTNFR2 antibodies so that the anti-hTNFR2 antibodies that are bound to the ΔCRD cells can be detected by FACS. Specifically, ΔCRD1-TNFR2 protein (with CRD1 deleteion), ΔCRD2-TNFR2 protein (with CRD2 deleteion), ΔCRD3-TNFR2 protein (with CRD3 deleteion) or ΔCRD4-TNFR2 protein (with CRD4 deleteion) were expressed in CHO-S cells respectively, and then the binding between the cells and different anti-hTNFR2 antibodies was detected.

[2] = molecular target: T2, human TNFR2 (expressed on cells) (human, UniProt P20333 23-461); assay: cell-based or functional assay
T2 sequence: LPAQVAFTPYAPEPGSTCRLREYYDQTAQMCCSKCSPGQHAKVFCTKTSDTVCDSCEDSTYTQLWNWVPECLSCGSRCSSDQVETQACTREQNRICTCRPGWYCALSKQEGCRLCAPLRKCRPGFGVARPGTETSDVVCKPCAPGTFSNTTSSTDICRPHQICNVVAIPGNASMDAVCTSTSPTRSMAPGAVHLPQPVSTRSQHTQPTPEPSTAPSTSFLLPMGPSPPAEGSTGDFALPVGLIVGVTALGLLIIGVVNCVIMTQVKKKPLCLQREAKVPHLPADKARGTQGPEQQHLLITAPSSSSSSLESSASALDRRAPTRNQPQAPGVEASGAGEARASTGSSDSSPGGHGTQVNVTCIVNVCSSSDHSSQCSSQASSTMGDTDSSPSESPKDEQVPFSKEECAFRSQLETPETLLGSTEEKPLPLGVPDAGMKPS

[3] = molecular target: T3, ΔCRD4-TNFR2 protein (with CRD4 deletion), on CHO-S cells (human, UniProt P20333 23-461); assay: FACS on CHO-S cells with ΔCRD4-TNFR2
T3 construct: also called CHO-SΔCRD4-TNFR2; TNFR2 lacking CRD4
T3 sequence: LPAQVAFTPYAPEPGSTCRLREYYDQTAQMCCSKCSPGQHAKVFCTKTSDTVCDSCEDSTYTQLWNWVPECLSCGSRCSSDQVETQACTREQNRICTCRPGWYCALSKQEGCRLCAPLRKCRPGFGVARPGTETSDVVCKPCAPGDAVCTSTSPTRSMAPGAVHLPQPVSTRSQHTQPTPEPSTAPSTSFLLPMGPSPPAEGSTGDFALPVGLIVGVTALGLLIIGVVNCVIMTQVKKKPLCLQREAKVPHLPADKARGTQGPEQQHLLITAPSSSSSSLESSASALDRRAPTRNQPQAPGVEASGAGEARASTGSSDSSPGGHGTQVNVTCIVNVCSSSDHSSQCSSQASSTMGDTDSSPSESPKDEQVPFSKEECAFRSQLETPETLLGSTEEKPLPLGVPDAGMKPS
Excerpt: as §1

binding result [1]: no binding
B1: BC-1A8-IgG1 (antibody, V domains shown)
VH: QVQLQQSGPGLVKPSQTLSLTCAISGDSVSSNSAAWNWIRQSPSRGLEWLGRTYYRSKWYNDYALSVKSRITINPETSKNQFSLQLNSVTPEDTAVYYCAREDGVGGTKDYFDYWGQGTLVTVSS
VL: DIQMTQSPSSLSASVGDRVTITCQASQDIDNYLNWYQQKPGKAPKLLIYDVSNLEIGVPSRFSGSGSGTDFTFTISSLQPEDIATYYCQQYDNLPLTFGQGTRLEIK
notes: Fully human VH/VL joined to the human IgG1 subtype, kappa light chain (RenMab mice)

binding result [1]: no binding
B2: BC-1F4-IgG1 (antibody, V domains shown)
VH: B1 VH with N32D, A34S, A64T, L65V, E76D
VL: B1 VL with D30S, V51A, I56T, S76N, I83F, Y87F, L96I
notes: Human VH/VL joined to the human IgG1 subtype

EC50 (read off the curve) [2]: ~0.4 µg/mL
binding result [1]: no binding
binding result [3]: no binding
B3: BC-1C3-IgG1 (antibody, V domains shown)
VH: QVQLVESGGGVVHPGKSLRLSCAASGFTFNIYGMHWVRQAPGKGLEWVALISYDGNDKYFADSVKGRFTISRDNSKNTLYLQMNSLRAEDTAVYYCAKAVDTAVVTFFDYWGQGTLVTVSS
VL: EIVMTQSPVTLSVSPGERATLSCRASQSVSSNLAWYQQKPGQAPRLLIYSASTRATGIPARFSGSGSGTEFTLTISSLQSEDLAVYYCQQYSNWPFTFGPGTKVDIK
notes: as for B2
